Experimental data reported in patent US20160304615A1.
pEC50, pKd: −log10 of the molar value.

Experiments:
EGFRvIII-mFc (human) [1] = test: SPR 37C, mAb-capture
EGFR-mFc (human) = test: SPR 37C, receptor-capture
EGFRvIII-mFc (human) [2] = test: SPR 37C, receptor-capture
EGFRvIII-mmh (human) [3] = target: EGFRvIII-mmh (human) (UniProt P00533); test: SPR 37C, mAb-capture
[4] = target: wild-type human EGFR on cells (human) (UniProt P00533); test: FACS, A431 cells, PE secondary antibody
[5] = target: full-length hEGFRvIII on cells (human) (UniProt P00533); test: FACS, HEK293/EGFRvIII cells, PE secondary antibody
EGFRvIII-mmh (human) [6] = target: EGFRvIII-mmh (human) (UniProt P00533); test: SPR coinjection; competitor (first antibody): H1H1863N2(Fuc-)
EGFRvIII-mmh (human) [7] = target: EGFRvIII-mmh (human) (UniProt P00533); test: SPR coinjection; competitor (first antibody): Control II
[8] = target: wild-type human EGFR on cells (human) (UniProt P00533); test: FACS, A431 cells, directly labeled antibody
EGFRvIII-mmh (human) [9] = target: EGFRvIII-mmh (human) (UniProt P00533); test: SPR, captured hEGFRvIII-mmh; no first antibody
[10] = target: EGFRvIII junctional peptide (human); test: ELISA
[11] = target: C-terminal biotin-labeled EGFRvIII junctional peptide (human); test: ELISA
EGFRvIII-mmh (human) [12] = target: EGFRvIII-mmh (human) (UniProt P00533); test: ELISA
[13] = target: N-terminal biotin-labeled EGFRvIII junctional peptide (human); test: ELISA
EGFRvIII-mmh (human) [14] = target: EGFRvIII-mmh (human) (UniProt P00533); test: SPR coinjection; competitor (first antibody): Control III
EGFRvIII-mmh (human) [15] = target: EGFRvIII-mmh (human) (UniProt P00533); test: SPR coinjection; competitor (first antibody): Control I
[16] = target: full-length hEGFRvIII on cells (human) (UniProt P00533); test: FACS, HEK293/EGFRvIII cells, directly labeled antibody
[17] = target: full-length hEGFRvIII on cells (human) (UniProt P00533); test: cell-based or functional assay
EGFR-mmh (human) = EGFR-mmh (human) (UniProt P00533); test: ELISA

Sequence of Control III: Humanized anti-EGFRvIII antibody (hIgG1) with the variable domains of the "hu806" antibody of US 2010/0056762 (VH): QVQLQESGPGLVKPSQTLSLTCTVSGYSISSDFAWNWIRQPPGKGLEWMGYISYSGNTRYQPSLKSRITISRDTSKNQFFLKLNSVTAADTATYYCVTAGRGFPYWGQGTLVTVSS
Sequence of Control III: Humanized anti-EGFRvIII antibody (hIgG1) with the variable domains of the "hu806" antibody of US 2010/0056762 (VL): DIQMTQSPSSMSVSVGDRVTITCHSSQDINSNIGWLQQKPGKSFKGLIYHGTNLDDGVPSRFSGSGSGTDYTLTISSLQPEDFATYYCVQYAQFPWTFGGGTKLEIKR

pKd (EGFRvIII-mFc (human) [1])	T½ (EGFRvIII-mFc (human) [1]) [min]	pKd (EGFR-mFc (human))	T½ (EGFR-mFc (human)) [min]	pKd (EGFRvIII-mFc (human) [2])	T½ (EGFRvIII-mFc (human) [2]) [h]	koff (EGFRvIII-mFc (human) [1]) [s⁻¹]	kon (EGFRvIII-mFc (human) [1]) [M⁻¹ s⁻¹]	pKd (EGFRvIII-mmh (human) [3])	T½ (EGFRvIII-mmh (human) [3]) [min]	koff (EGFRvIII-mmh (human) [3]) [s⁻¹]	kon (EGFRvIII-mmh (human) [3]) [M⁻¹ s⁻¹]	A431 MFI [4] [MFI]	Fold Above Background [4] [fold]	HEK293/EGFRvIII MFI [5] [MFI]	Ratio (EGFRvIII MFI/parental MFI) [5]	Second Antibody Binding Response (RU) (EGFRvIII-mmh (human) [6])	Second Antibody Binding Response (RU) (EGFRvIII-mmh (human) [7])	A431 MFI [8] [MFI]	Second Antibody Binding Response (RU) (EGFRvIII-mmh (human) [9])	Substance	other results
8.93	39	9.67	187	12.17	192															Control III: Humanized anti-EGFRvIII antibody (hIgG1) with the variable domains of the "hu806" antibody of US 2010/0056762	
8.71	31					0.000371	191000	7.09	1	0.0159	194000	4240	3	997000	85					Control V: Human anti-EGFRvIII antibody (IgG1) with the variable domains of the "131" antibody of U.S. Pat. No. 7,736,644 B2	
6.99	1.6			8.04	0.0483			5.92	0.1			1450		272000		253	252	9650	234	Control I: Human anti-EGFRvIII antibody (IgG1) with the variable domains of the "13.1.2" antibody of U.S. Pat. No. 7,736,644	pEC50 [10]: 9.93; pEC50 [11]: 10.82; pEC50 (EGFRvIII-mmh (human) [12]): 11.03; pEC50 [13]: 10.97; Second Antibody Binding Response (RU) (EGFRvIII-mmh (human) [14]): 254 RU; Second Antibody Binding Response (RU) (EGFRvIII-mmh (human) [15]): 5 RU; HEK293/EGFRvIII MFI [16]: 258000 MFI; Fluorescent Intensity of vesicles 4° C., Mean [17]: 22000; Fluorescent Intensity of vesicles 37° C., Mean [17]: 264000
8.69	28	9.48	79	10.23	2.63	0.000408	202000	6.82	2	0.00733	49000	5580	3.9	313000	308	191	6	15700	247	Control II: Chimeric anti-EGFRvIII antibody (hIgG1) with the variable domains of the "ch806" antibody of U.S. Pat. No. 7,589,180	Fold Above Background [8]: 2.3 fold; pEC50 (EGFR-mmh (human)): 11.02; pEC50 (EGFRvIII-mmh (human) [12]): 11.24; Second Antibody Binding Response (RU) (EGFRvIII-mmh (human) [14]): 13 RU; Second Antibody Binding Response (RU) (EGFRvIII-mmh (human) [15]): 258 RU; HEK293/EGFRvIII MFI [16]: 313000 MFI; Ratio (EGFRvIII MFI/parental MFI) [16]: 87.4; koff (EGFR-mFc (human)): 0.000146 s⁻¹; kon (EGFR-mFc (human)): 444000 M⁻¹ s⁻¹; koff (EGFRvIII-mFc (human) [2]): 7.31e-05 s⁻¹; kon (EGFRvIII-mFc (human) [2]): 1.25e+06 M⁻¹ s⁻¹; Fluorescent Intensity of vesicles 4° C., Mean [17]: 20300; Fluorescent Intensity of vesicles 37° C., Mean [17]: 615000
